Data reported in publication PMC4402506.

How the values were obtained:
Assay in all cases: filter binding
Conditions in all cases: Nitrocellulose filter binding, 0.5 ml, 37 C, 30-60 min, then agarose gel. Topo IV: 40 mM Tris-HCl pH 7.5, 6 mM MgCl2, 100 mM KOAc, 1 mM DTT, 0.1 mM EDTA
[1] = system: Topo IV (ParC+ParE) (Escherichia coli)
[2] = system: ntop1 Y723F (nuclear topoisomerase I) (human)
[3] = system: EcoRV
[4] = system: RecQ (Escherichia coli)
[5] = system: top1mt Y559F (mitochondrial topoisomerase I) (human)
[6] = system: Tfam (human)

Q: “pBR322, negatively supercoiled topoisomer dLk about -23 (unresolved band below -10)” was tested. Which binding signal (fold Ka vs relaxed) [1] did it give?
A: 5

Q: How did the binding signal (Ka nicked/Ka relaxed) ([2]; nick, position undefined) turn out when pBR322, nicked (open circular) was run?
A: 8.6

Q: With “pBR322, relaxed closed circular (dLk 0; dLk -1 as reference for Topo IV and Tfam)” as the substance, how does the binding signal (Ka ratio (reference dLk 0)) [3] read?
A: 1

Q: And the binding signal (Ka ratio (reference dLk 0)) [4]?
A: 1

Q: And the binding signal (Ka ratio (reference dLk 0)) [5]?
A: 1

Q: And the binding signal (Ka ratio (reference dLk -1)) [6]?
A: 1

Q: What about the binding signal (Ka ratio (reference dLk 0)) [2] of the same substance?
A: 1

Q: And the binding signal (Ka ratio (reference dLk -1)) [1]?
A: 1
